From article PMC10663143, “CALEOSIN 1 interaction with AUTOPHAGY-RELATED PROTEIN 8 facilitates lipid droplet microautophagy in seedlings” (Plant Physiology, 2023)

Target: T1, CALEOSIN 2 (CLO2), Cub fusion (Arabidopsis thaliana, UniProt Q9FLN9 1-243)
T1 construct: CALEOSIN 2 of Arabidopsis thaliana; the coding region was amplified and inserted into pMetYCgate; Bait; source: yeast split-ubiquitin fusion (pMetYCgate, S. cerevisiae THY.AP4)
Test: two-hybrid; mating-based split-ubiquitin system in yeast; Cub fusions as bait, NubG fusions as prey; quantitative β-galactosidase assay (Beta-Glo), activity normalized to a reference pair
Details: partners not purified

T1 sequence (Q9FLN9 whole entry, the tested form may be a part): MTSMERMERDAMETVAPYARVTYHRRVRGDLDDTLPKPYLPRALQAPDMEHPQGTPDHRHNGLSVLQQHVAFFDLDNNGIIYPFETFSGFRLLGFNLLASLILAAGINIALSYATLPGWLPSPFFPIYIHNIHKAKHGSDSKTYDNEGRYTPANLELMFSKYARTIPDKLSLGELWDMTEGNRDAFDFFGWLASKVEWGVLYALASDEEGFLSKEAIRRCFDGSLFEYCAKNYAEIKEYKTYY

B1: AUTOPHAGY-RELATED PROTEIN 8b (ATG8b), NubG fusion (natural protein, Arabidopsis thaliana, UniProt Q9XEB5 1-117, looked up)
chain: MEKNSFKLSNPLEMRMAESTRIRAKYPERVPVIVEKAGQSDVPDIDKKKYLVPADLTIGQFVYVVRKRIKLGAEKAIFVFVKNTLPPTAALMSAIYEEHKDEDGFLYMTYSGENTFG
notes: AUTOPHAGY-RELATED PROTEIN 8b of Arabidopsis thaliana; the coding region was amplified and inserted into pNXgate32-3HA; Prey; source: yeast split-ubiquitin fusion (pNXgate32-3HA, S. cerevisiae THY.AP5)
fold weaker β-galactosidase activity than with CLO1, CLO3 and OLE1: 2 fold
